Measured values from patent publication US20240141027A1 (BIOARCTIC, published 2024).
One block for each binder: values may come before it.

Columns and labels:
[1] = molecular target: T1, recombinant murine transferrin receptor 1 (mTfR1), extracellular domain fused to a His-tag (murine, UniProt Q62351 89-763); test: indirect ELISA, plates coated with recombinant mTfR1
T1 construct: Position of the His-tag (N or C) unknown; also called recombinant mTfR1; murine TfR1; not shown: His-tag
Procedure: Binding of selected expressed constructs to mTfR1 was assessed by indirect ELISA (FIG. 4). In brief, half area 96-well plates (Corning, #3690) were coated with 1 μg/ml recombinant mTfR1, produced as described in Example 4, in PBS overnight at 4° C. The coated plates were blocked using Pierce protein-free blocking solution (Thermo Fisher Scientific, #37572) for 1 h at room temperature with shaking and washed four times in PBS containing 0.1% TWEEN-20. Serial dilutions (1:3) of expressed constructs in incubation buffer (1% BSA, 0.1% TWEEN-20 in PBS) were incubated for 1 h at room temperature. Following the four wash steps, bound test constructs were detected by addition of anti-mouse-IgG F(ab′)2-HRP antibody (Jackson Immuno Research, #115-035-006) at 1:1250 dilution in incubation buffer (1 h, room temperature). Following four wash steps, K-Blue® Aqueous TMB substrate (Neogen, #331177) was added to the wells for 15 min at room temperature before the reaction was stopped with 1:1 dilution of 0.5 M H₂SO₄. The optical density at 450 nm was recorded (Spark, Tecan) and background signal was subtracted before analysis.

[2] = molecular target: T2, mTfR1 expressed on cell surfaces of Immortalized Mouse Cerebral Capillary Endothelial Cells (cEND) (mouse, UniProt Q62351 1-763); test: flow cytometry on cEND cells, 100 nM, 4° C., anti-mouse IgG-PE
T2 construct: whole, on cells; also called mTfR1 on cEND cells
T2 sequence (Q62351 whole entry): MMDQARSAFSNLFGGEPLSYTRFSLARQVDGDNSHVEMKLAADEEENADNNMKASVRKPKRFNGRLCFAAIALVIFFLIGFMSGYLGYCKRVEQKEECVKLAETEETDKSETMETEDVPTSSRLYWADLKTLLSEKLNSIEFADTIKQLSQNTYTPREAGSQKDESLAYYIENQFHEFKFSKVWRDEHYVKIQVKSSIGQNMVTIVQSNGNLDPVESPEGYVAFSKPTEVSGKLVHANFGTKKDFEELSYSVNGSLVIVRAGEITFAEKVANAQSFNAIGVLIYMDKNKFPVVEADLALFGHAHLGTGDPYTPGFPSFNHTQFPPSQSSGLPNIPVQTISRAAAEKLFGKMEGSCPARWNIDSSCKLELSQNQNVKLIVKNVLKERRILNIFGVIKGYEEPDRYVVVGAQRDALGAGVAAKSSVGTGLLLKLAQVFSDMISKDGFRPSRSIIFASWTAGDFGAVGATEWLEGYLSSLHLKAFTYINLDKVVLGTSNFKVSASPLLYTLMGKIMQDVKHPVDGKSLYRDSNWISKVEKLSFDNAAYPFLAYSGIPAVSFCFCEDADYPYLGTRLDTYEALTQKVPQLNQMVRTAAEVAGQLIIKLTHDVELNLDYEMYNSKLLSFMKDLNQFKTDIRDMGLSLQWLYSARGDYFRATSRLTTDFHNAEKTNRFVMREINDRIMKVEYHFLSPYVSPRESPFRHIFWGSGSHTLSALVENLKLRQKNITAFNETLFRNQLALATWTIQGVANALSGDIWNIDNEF
Procedure: Binding and uptake mediated by TfR1 was measured on Immortalized Mouse Cerebral Capillary Endothelial Cells (cEND) (ABM, #T0290).
The pellet was resuspended in PBS and 200,000 cells per well were seeded in U-bottom 96-well Corning plates for flow cytometry staining. Cells were then washed with PBS and incubated with 100 nM of one of the mAb158-8D3 constructs mAb158-scLc-8D3-Ig.1, mAb158-scLc-8D3-Ig.2 and mAb158-scLc-8D3-Ig.3, control 8D3 IgG (light chain of SEQ ID NO:17, heavy chain of SEQ ID NO:19) or murine IgG control for 45 min at 4° C. After primary incubation, cells were washed twice with ice cold PBS, and mAb158-8D3 constructs were captured using a fluorescently labeled secondary anti-mouse IgG-PE antibody (BD Biosciences, 550589). After incubation, cells were washed twice with PBS and resuspended in 200 μl PBS. Cells were acquired in a BD FACSLyric flow cytometer system (BD Biosciences) and samples were analyzed using FCS Express software (De Novo Software).

[3] = molecular target: T1, recombinant murine transferrin receptor …; test: SPR (Biacore 8K), mTfR1 amine-coupled on CM5 chip, single cycle kinetics
Procedure: Monovalent binding interaction for mAb158-scLc-8D3-Ig.8 against murine TfR1 was measured using surface plasmon resonance (Biacore 8K, Cytiva). A Cm5 sensor chip (Cytiva, #BR100399) was immobilized with 3 μg/ml of mTfR1 using the amine coupling kit type 2 (Cytiva, #BR100633) according to the manufacturer's instruction. A 2-fold dilution series in HBS-EP+(Cytiva, #BR100669) starting at 50 nM of analyte was injected in duplicates over the immobilized ligand and the interaction was measured using the single cycle kinetics method with a contact time of 160 s at a flow rate of […] followed by a dissociation time of 1000 s.

T1 sequence (Q62351 89-763): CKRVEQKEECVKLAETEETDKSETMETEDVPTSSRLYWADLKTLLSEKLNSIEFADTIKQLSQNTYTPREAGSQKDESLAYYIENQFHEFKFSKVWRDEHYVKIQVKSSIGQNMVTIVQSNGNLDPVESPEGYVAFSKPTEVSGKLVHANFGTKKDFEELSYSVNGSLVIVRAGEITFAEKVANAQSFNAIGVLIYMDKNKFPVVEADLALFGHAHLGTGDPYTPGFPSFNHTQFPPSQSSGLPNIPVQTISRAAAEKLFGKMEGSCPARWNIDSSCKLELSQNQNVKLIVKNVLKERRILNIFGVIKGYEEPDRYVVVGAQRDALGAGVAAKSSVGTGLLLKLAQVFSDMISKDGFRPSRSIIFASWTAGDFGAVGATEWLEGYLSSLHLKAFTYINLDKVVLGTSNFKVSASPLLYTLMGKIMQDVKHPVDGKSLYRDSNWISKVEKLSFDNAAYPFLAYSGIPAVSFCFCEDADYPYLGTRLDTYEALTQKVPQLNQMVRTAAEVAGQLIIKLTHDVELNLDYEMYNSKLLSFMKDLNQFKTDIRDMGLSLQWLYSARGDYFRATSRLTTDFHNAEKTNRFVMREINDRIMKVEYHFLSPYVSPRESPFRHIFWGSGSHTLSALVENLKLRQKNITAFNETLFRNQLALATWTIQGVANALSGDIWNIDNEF

binding result [1]: binds
B1: mAb158-scLc-8D3-Ig.3 (bispecific antibody, human IgG1, kappa)
heavy: not shown
chain: DIVMTQAPLSLPVSLGDQASISCRSSQSIVHSNGNTYLEWYLQKPGQSPKLLIYKVSNRFSGVPDRFSGSGSGTDFTLKISRVEAEDLGIYYCFQGSHVPPTFGGGTKLEIKRADAAPTVSIFPPSSEQLTSGGASVVCFLNNFYPKDINVKWKIDGSERQNGVLNSWTDQDSKDSTYSMSSTLTLTKDEYERHNSYTCEATHKTSTSPIVKSFNRNECGGSSGSGSGSTGTSSSGTGTSAGTTGTSASTSGSGSEVQLVESGGGLVQPGNSLTLSCVASGFTFSNYGMHWIRQAPKKGLEWIAMIYYDSSKMNYADTVKGRFTISRDNSKNTLYLEMNSLRSEDTAMYYCAVPTSHYVVDVWGQGVSVTVSSGGGGSGGGGSGGGGSDIQMTQSPASLSASLEEIVTITCQASQDIGNWLAWYQQKPGKSPQLLIYGATSLADGVPSRFSGSRSGTQFSLKISRVQVEDIGIYYCLQAYNTPWTFGGGTKLELKRGGSSGSGSGSTGTSSSGTGTSAGTTGTSASTSGSGSGGSSGSGSGSTGTSSSGTGTSAGTTGTSASTSGSGSDIVMTQAPLSLPVSLGDQASISCRSSQSIVHSNGNTYLEWYLQKPGQSPKLLIYKVSNRFSGVPDRFSGSGSGTDFTLKISRVEAEDLGIYYCFQGSHVPPTFGGGTKLEIKRADAAPTVSIFPPSSEQLTSGGASVVCFLNNFYPKDINVKWKIDGSERQNGVLNSWTDQDSKDSTYSMSSTLTLTKDEYERHNSYTCEATHKTSTSPIVKSFNRNEC
notes: Format [LC-L1-scBM-L2-LC]
binding result [2]: binds

binding result [1]: binds
B2: mAb158-scLc-8D3-Ig.2 (bispecific antibody, human IgG1, kappa)
heavy: not shown
chain: DIVMTQAPLSLPVSLGDQASISCRSSQSIVHSNGNTYLEWYLQKPGQSPKLLIYKVSNRFSGVPDRFSGSGSGTDFTLKISRVEAEDLGIYYCFQGSHVPPTFGGGTKLEIKRADAAPTVSIFPPSSEQLTSGGASVVCFLNNFYPKDINVKWKIDGSERQNGVLNSWTDQDSKDSTYSMSSTLTLTKDEYERHNSYTCEATHKTSTSPIVKSFNRNECGGGGSGGGGSGGGGSGGGGSGGGGSEVQLVESGGGLVQPGNSLTLSCVASGFTFSNYGMHWIRQAPKKGLEWIAMIYYDSSKMNYADTVKGRFTISRDNSKNTLYLEMNSLRSEDTAMYYCAVPTSHYVVDVWGQGVSVTVSSGGGGSGGGGSGGGGSDIQMTQSPASLSASLEEIVTITCQASQDIGNWLAWYQQKPGKSPQLLIYGATSLADGVPSRFSGSRSGTQFSLKISRVQVEDIGIYYCLQAYNTPWTFGGGTKLELKRGGGGSGGGGSGGGGSGGGGSGGGGSDIVMTQAPLSLPVSLGDQASISCRSSQSIVHSNGNTYLEWYLQKPGQSPKLLIYKVSNRFSGVPDRFSGSGSGTDFTLKISRVEAEDLGIYYCFQGSHVPPTFGGGTKLEIKRADAAPTVSIFPPSSEQLTSGGASVVCFLNNFYPKDINVKWKIDGSERQNGVLNSWTDQDSKDSTYSMSSTLTLTKDEYERHNSYTCEATHKTSTSPIVKSFNRNEC
notes: Format [LC-L1-scBM-L2-LC]
binding result [2]: binds

binding result [3]: binds
B3: 8D3 Fab (Fab, V domains shown)
VH: EVQLVESGGGLVQPGNSLTLSCVASGFTFSNYGMHWIRQAPKKGLEWIAMIYYDSSKMNYADTVKGRFTISRDNSKNTLYLEMNSLRSEDTAMYYCAVPTSHYVVDVWGQGVSVTVSS
VL: DIQMTQSPASLSASLEEIVTITCQASQDIGNWLAWYQQKPGKSPQLLIYGATSLADGVPSRFSGSRSGTQFSLKISRVQVEDIGIYYCLQAYNTPWTFGGGTKLELKR
notes: Anti-mouse TfR1 control; also called monovalent 8D3 Fab control; monovalent 8D3 Fab
